B1: CPEB3 Ribozyme (parent)
chain: UAACAGGGGGCCACAGCAGAAGCGUUCACGUCGCAGCCCCUGUCAGAUUCUGGUGAAUCUGCGAAUUCUGCUGUAUAUCUC

Variants of: B1
Assay: self-cleavage, relative activity (ratio to wild type); higher = more cleavage; in vitro, sequencing
Summary of the method: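 After error-prone PCR and barcoding, CPEB3 ribozyme mutant libraries were transcribed with T7 RNA polymerase at 37°C for 5 hours, then given 15 min with DNase I before an EDTA stop, and they cleaved during both steps. Reverse transcription with template switching preceded Illumina sequencing. Relative activity divides a variant's cleaved/total read fraction by the unmutated ribozyme's. At least 5 reads were required per variant, and three batches were averaged.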

| Variant | self-cleavage |
| --- | --- |
| UAACAGGGGGCCACAGCAGAAGCGUUCACGUCGCAGCCCCUGUCAGAUUCUUGUGAAUCUGCGAAAUCUGCUGUAUAUCUC | 0.64 |
| UAACAGGGGGCCACAGCAGAAGCGUUCACGUCGCAGCCCCUGUCAGAUUCUUGUGAAUCUGCGAACUCUGCUGUAUAUCUC | 0.54 |
| UAACAGGGGGCCACAGCAGAAGCGUUCACGUCGCAGCCCCUGUCAGAUUCUUGUGGAUCUGCGAAUUCUGCUGUAUAUCUC | 1.14 |
| UAACAGGGGGCCACAGCAGAAGCGUUCACGUCGCAGCCCCUGUCAGAUUCUUGUGAAUCUGCGUAUUCUGCUGUAUAUCUC | 0.39 |
| UAACAGGGGGCCACAGCAGAAGCGUUCACGUCGCAGCCCCUGUCAGAUUCUUGUGAAUCUGCGGAUUCUGCUGUAUAUCUC | 1.08 |
| UAACAGGGGGCCACAGCAGAAGCGUUCACGUCGCAGCCCCUGUCAGAUUCUUGUGAACCUGCGAAUUCUGCUGUAUAUCUC | 0.87 |
| UAACAGGGGGCCACAGCAGAAGCGUUCACGUCGCAGCCCCUGUCAGAUUCUCGUGAAUCUGCGAAUUCUGCUGAAUAUCUC | 1.28 |
| UAACAGGGGGCCACAGCAGAAGCGUUCACGUCGCAGCCCCUGUCAGAUUCUUGUGAAUCUACGAAUUCUGCUGUAUAUCUC | 1.02 |
| UAACAGGGGGCCACAGCAGAAGCGUUCACGUCGCAGCCCCUGUCAGAUUCUUGUGAAUCUCCGAAUUCUGCUGUAUAUCUC | 0.22 |
| UAACAGGGGGCCACAGCAGAAGCGUUCACGUCGCAGCCCCUGUCAGAUUCUUGUGAAUCUGCGAAUUUUGCUGUAUAUCUC | 1.19 |
| UAACAGGGGGCCACAGCAGAAGCGUUCACGUCGCAGCCCCUGUCAGAUUCUCGUGAAUCUGCGAAUUCUGCUGUAUAUCCC | 1.2 |
| UAACAGGGGGCCACAGCAGAAGCGUUCACGUCGCAGCCCCUGUCAGAUUCUCGUGAAUCUGCGAAUUCUGCUGUAUAUCAC | 1.22 |
| UAACAGGGGGCCACAGCAGAAGCGUUCACGUCGCAGCCCCUGUCAGAUUCUUGUGAAUCUGCGAAUUCAGCUGUAUAUCUC | 0.72 |
| UAACAGGGGGCCACAGCAGAAGCGUUCACGUCGCAGCCCCUGUCAGAUUCUUGUGAAUCUGCGAAUUCCGCUGUAUAUCUC | 0.73 |
| UAACAGGGGGCCACAGCAGAAGCGUUCACGUCGCAGCCCCUGUCAGAUUCUUGUGAAUCUGCGAAUUCUGCGGUAUAUCUC | 0.99 |
| UAACAGGGGGCCACAGCAGAAGCGUUCACGUCGCAGCCCCUGUCAGAUUCUUGUGAAUCUGCGAAUUCUGCAGUAUAUCUC | 0.73 |
| UAACAGGGGGCCACAGCAGAAGCGUUCACGUCGCAGCCCCUGUCAGAUUCUCGUGAAUCUGCGAAUUCCGCUGUAUAUCUC | 0.86 |

| Variant | self-cleavage |
| --- | --- |
| UAACAGGGGGCCACAGCAGAAGCGUUCACGUCGCAGCCCCUGUCAGAUUCUUGUGAAUCUGCGAAUGCUGCUGUAUAUCUC | 0.33 |
| UAACAGGGGGCCACAGCAGAAGCGUUCACGUCGCAGCCCCUGUCAGAUUCUUGUGAAUCUGCGAAUCCUGCUGUAUAUCUC | 0.32 |
| UAACAGGGGGCCACAGCAGAAGCGUUCACGUCGCAGCCCCUGUCAGAUUCUUGUGAAUCUGCGAAUACUGCUGUAUAUCUC | 0.71 |
| UAACAGGGGGCCACAGCAGAAGCGUUCACGUCGCAGCCCCUGUCAGAUUCUUGUGAAUCUGCAAAUUCUGCUGUAUAUCUC | 0.99 |
| UAACAGGGGGCCACAGCAGAAGCGUUCACGUCGCAGCCCCUGUCAGAUUCUUGUGAAUCUGCUAAUUCUGCUGUAUAUCUC | 1.2 |
| UAACAGGGGGCCACAGCAGAAGCGUUCACGUCGCAGCCCCUGUCAGAUUCUUGUGAAUCUGCGAAUUCUGCUGUAUAUCUC | 1.13 |
| UAACAGGGGGCCACAGCAGAAGCGUUCACGUCGCAGCCCCUGUCAGAUUCUUGUGAAUCUGCGAUUUCUGCUGUAUAUCUC | 0.28 |
| UAACAGGGGGCCACAGCAGAAGCGUUCACGUCGCAGCCCCUGUCAGAUUCUUGUGAAUCUGCGAGUUCUGCUGUAUAUCUC | 0.51 |
| UAACAGGGGGCCACAGCAGAAGCGUUCACGUCGCAGCCCCUGUCAGAUUCUUGUGAAUCUGCGAAUUCUGCUGUAAAUCUC | 1.24 |
| UAACAGGGGGCCACAGCAGAAGCGUUCACGUCGCAGCCCCUGUCAGAUUCUUGUGAAUCUGCGAAUUCUGCUGUAGAUCUC | 1.19 |
| UAACAGGGGGCCACAGCAGAAGCGUUCACGUCGCAGCCCCUGUCAGAUUCUUGUGAAUCUGCGAAUUCUGCUGUACAUCUC | 1.19 |
| UAACAGGGGGCCACAGCAGAAGCGUUCACGUCGCAGCCCCUGUCAGAUUCUCGUGAAUCUGCGAAUUCUGCCGUAUAUCUC | 1.24 |
| UAACAGGGGGCCACAGCAGAAGCGUUCACGUCGCAGCCCCUGUCAGAUUCUCGUGAAUCUGCGAAUUCUGCAGUAUAUCUC | 1 |
| UAACAGGGGGCCACAGCAGAAGCGUUCACGUCGCAGCCCCUGUCAGAUUCUUGCGAAUCUGCGAAUUCUGCUGUAUAUCUC | 1.14 |
| UAACAGGGGGCCACAGCAGAAGCGUUCACGUCGCAGCCCCUGUCAGAUUCUUGAGAAUCUGCGAAUUCUGCUGUAUAUCUC | 1.09 |
| UAACAGGGGGCCACAGCAGAAGCGUUCACGUCGCAGCCCCUGUCAGAUUCUUGUGAAUCUGCGAAUUCUGCUGCAUAUCUC | 1.28 |
| UAACAGGGGGCCACAGCAGAAGCGUUCACGUCGCAGCCCCUGUCAGAUUCUUGUGAAUCUGCGAAUUCUGCUGAAUAUCUC | 1.26 |
